For one substance, stoichiometry N results are on record in PMC7948450.

As a reminder, the stoichiometry N is a count of units in the complex or per binding partner.

The target in the test is ancestral flavin-containing monooxygenase 1 (AncFMO1), reconstructed mammalian ancestor of FMO1 (reconstructed mammalian ancestor). The test can be described thus: crystal structure; AncFMO1 12.5 mg/ml with 1.0 mM NADP+ in storage buffer with 0.03% DDM; sitting drop, 20 °C, 100 mM Hepes pH 7.5, PEG 4000 10%, glycerol 20%; 3.0 Å; asymmetric unit of two dimers.

Take “ancestral flavin-containing monooxygenase 1 (AncFMO1), reconstructed mammalian ancestor of FMO1 (enzyme)”: the stoichiometry N came to 2.
